Reference: patent publication US20130230504A1 (CHILDREN S MEDICAL CENTER, published 2013)
Each block holds one molecule with its values, some of them ahead of it.

Key:
[1] = target: VEGF165 receptor (VEGF165R) (human) (UniProt O14786); assay: competition with 125I-VEGF165 (5 ng/ml) on HUVEC (KDR/Flk-1 and VEGF165R), increasing GST-Ex 7+8, gamma counting
[2] = target: VEGF165 receptor (VEGF165R) (human) (UniProt O14786); assay: competition with 125I-VEGF165 (5 ng/ml) on MDA-MB-231 cells (VEGF165R only), increasing GST-Ex 7+8, gamma counting
[3] = target: VEGF165 receptor (VEGF165R) (human) (UniProt O14786); assay: competition with 125I-VEGF165 (5 ng/ml) on HUVEC at 2 ug/ml GST-Ex 7, gamma counting
KDR/Flk-1 = KDR/Flk-1 (human, UniProt P35968 20-1356); assay: cell-based or functional assay
KDR/Flk-1, sequence (P35968 20-1356): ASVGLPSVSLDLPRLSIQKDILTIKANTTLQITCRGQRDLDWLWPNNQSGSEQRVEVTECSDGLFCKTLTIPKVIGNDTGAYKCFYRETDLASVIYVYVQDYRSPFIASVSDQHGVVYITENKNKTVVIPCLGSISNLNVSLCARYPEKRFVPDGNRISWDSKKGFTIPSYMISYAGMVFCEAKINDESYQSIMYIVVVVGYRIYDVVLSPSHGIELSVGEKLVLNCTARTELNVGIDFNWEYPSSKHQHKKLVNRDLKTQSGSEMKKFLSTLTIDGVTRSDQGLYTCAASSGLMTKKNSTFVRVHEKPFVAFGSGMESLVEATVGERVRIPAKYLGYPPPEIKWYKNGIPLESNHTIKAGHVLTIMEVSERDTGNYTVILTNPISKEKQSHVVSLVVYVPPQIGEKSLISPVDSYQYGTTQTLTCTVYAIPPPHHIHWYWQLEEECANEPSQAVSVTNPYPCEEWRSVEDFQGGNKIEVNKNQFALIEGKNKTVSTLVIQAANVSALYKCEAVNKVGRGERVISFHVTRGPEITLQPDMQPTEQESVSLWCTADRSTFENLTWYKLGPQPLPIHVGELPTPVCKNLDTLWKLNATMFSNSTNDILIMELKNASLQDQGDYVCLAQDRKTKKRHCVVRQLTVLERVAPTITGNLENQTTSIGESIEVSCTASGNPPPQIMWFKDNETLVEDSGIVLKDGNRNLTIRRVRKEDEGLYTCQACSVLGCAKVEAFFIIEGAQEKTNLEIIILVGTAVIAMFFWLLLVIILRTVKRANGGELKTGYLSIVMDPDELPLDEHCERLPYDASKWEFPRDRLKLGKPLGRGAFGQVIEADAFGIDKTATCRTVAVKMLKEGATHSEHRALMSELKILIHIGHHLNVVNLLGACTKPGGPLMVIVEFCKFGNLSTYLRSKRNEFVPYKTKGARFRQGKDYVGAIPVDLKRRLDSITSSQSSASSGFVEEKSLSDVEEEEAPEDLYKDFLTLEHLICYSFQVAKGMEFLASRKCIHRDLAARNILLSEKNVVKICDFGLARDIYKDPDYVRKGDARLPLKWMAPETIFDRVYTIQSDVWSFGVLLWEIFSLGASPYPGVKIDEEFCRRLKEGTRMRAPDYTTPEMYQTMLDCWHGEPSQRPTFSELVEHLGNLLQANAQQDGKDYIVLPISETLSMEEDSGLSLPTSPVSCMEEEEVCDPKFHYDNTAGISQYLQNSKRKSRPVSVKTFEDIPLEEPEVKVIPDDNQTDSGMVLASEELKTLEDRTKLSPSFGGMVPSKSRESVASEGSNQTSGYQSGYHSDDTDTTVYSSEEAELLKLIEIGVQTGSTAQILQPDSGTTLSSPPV

VEGF165 receptor (VEGF165R) (human), sequence (O14786 22-923): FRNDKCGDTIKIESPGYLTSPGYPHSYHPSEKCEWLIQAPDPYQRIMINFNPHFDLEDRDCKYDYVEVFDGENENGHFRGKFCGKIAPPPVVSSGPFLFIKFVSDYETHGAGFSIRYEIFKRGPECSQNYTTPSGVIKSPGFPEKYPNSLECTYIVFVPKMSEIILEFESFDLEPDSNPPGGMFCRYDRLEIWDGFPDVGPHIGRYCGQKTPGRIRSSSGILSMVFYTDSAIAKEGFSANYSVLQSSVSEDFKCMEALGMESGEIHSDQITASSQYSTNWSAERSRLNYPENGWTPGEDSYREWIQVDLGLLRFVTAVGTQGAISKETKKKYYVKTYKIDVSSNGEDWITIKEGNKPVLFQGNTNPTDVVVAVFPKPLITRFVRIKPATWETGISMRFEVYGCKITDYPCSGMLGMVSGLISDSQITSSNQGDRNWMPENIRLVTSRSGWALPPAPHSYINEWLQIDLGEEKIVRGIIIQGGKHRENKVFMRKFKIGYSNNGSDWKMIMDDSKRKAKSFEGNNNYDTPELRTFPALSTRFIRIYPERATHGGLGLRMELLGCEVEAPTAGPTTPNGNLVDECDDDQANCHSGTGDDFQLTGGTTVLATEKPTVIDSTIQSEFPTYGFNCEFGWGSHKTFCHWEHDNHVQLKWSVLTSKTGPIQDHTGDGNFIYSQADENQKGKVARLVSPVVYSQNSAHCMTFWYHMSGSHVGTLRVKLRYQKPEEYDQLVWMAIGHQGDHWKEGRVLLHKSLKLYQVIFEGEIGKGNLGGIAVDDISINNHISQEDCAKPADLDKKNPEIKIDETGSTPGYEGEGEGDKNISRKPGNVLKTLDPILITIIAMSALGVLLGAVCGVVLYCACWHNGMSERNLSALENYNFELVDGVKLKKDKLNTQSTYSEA

percent inhibition of 125I-VEGF165 binding [1]: 85 to 95%
percent inhibition of 125I-VEGF165 binding [2]: 97 to 98%
Molecule: GST-Ex 7+8 fusion protein (GST fused to the VEGF165 exons 7- and 8-encoded peptide) (from UniProt P15692 187-191)

percent inhibition of 125I-VEGF165 binding [3]: 80%
Molecule: GST-Ex 7 fusion protein (GST fused to the 44 amino acids encoded by VEGF exon 7 plus the first cysteine of exon 8) (from UniProt P08515 1-218)

fold decrease in VEGF121-mediated HUVEC proliferation with 15 ug/ml GST-Ex 7+8 (KDR/Flk-1): ~2 fold
B1: Human recombinant VEGF121 (ligand, UniProt P15692-9 27-147, looked up)
chain: APMAEGGGQNHHEVVKFMDVYQRSYCHPIETLVDIFQEYPDEIEYIFKPSCVPLMRCGGCCNDEGLECVPTEESNITMQIMRIKPHQGQHIGEMSFLQHNKCECRPKKDRARQEKCDKPRR
modifications: radioiodinated (125I, IODO-BEADS) in the cross-linking assays
